Molecular target: human Claudin18.2 (human)
Test: cell-based or functional assay

| Binder | CDC % Relative activity | CDC EC50 |
| --- | --- | --- |
| 201F4H6 (antibody, V domains shown) VH: QVQLKESGPGLVAPSQSLSITCTVSGFSLTSYGVSWVRQPPGKGLECLGVIWAGGNTNYNSALMSRLSISKDKSKSQVFLKMNSLQTDDTAMYYCARVYYGNAMDYWGQGTSVTVSS VL: DIVMTQSPSSLTVTAGEKVTMSCKSSQSLLNSGNQKSYLTWYQQRPGQPPKLLIYWASTRESGVPDRFTGSGSGTDFTLTISSVQAEDLAVYFCQNVYFFPFTFGSGTKLETK | 135% | 1.42 µg/mL |
| 407E11H8 (antibody, V domains shown) VH: DVQLVESGGGLVQPGGSRKLSCAASGFTFSDFGMHWIRQTPEKGLEWVAYISSGSRPIYYADTVKGRFTISRDNPKNTLFLQMTSLRSEDTAMYFCVRFYFGNSFDHWGQGTLVTVSA VL: DIVMTQSPSFLTVTAGEKVTMTCRSSQNLLNSGNLKNYLTWYQQKPGQPPKLLISWASTRESGVPDRFTGSGSGTDFTLTISSVQPEDLALYYCQNAYSFPLTFGAGTKLELK | 60.4% | 4.32 µg/mL |
| 411A6E3 (antibody, V domains shown) VH: DVQLVESGGGLVQPGGSRKLSCAASGFTFSDFGMHWIRQTPEKGLEWVAYISSGSRPIYYADTVKGRFTISRDNPKNTLFLQMTSLRSEDTAMYFCVRFYFGNSFDHWGQGTLVTVSA VL: DIVMTQSPSFLTVTAGEKVTMTCRSSQNLLNSGNLKNYLTWYQQKPGQPPKLLISWASTRESGVPDRFTGSGSGTDFTLTISSVQPEDLALYYCQNAYSFPLTFGAGTKLELK | 109% | 2.5 µg/mL |
| 409G10G6 (antibody, V domains shown) VH: DVQLVESGGGLVQPGGSRKLSCAASGFTFSGFGMHWIRQTPEKGLEWVAYISSDSRPIYYADTVKGRFTISRDNPKNTLFLQMTSLRSEDTAMYFCGRFYYGNSFDHWGQGTLVTVSA VL: DIVMTQSPSFLTVTAGEKVTLSCRSSQSLLNSGNQRNYLTWYQQKPGQPPKLLIYWASTRESGVPDRFTGSGSGTDFTLTISSVQAEDRALYYCQNAYSFPLTFGTGTKLELR | 55.6% | 4.7 µg/mL |
| 200A4H8 (antibody, V domains shown) VH: QVQLKQSGPGLVQPSQSLSITCTVSGFSLTRYGVHWVRQSPGKGLEWLGVIWSGGNTDYNAAFISRLNIRKDNSKSQVFFKMNSLKPNDTAIYYCARAAYFGNSFDYWGQGTTLTVSS VL: DIVMTQSPSSLPVTAGEKVTMSCKSSQSLLNSGNQKNYLTWYQQKPGQPPKLLIYWASTRDSGVPDRFTGSGSGTDFTLTISSVQAEDLAVYYCQNNYIYPLTFGAGTKLELK | 84.5% | 2.27 µg/mL |
| 410H6H3 (antibody, V domains shown) VH: DVLLVESGGGLVQPGGSRKLSCAASGFTFSSSGMHWVRQAPEKGLEWVAYISSGSNTIYYADTLKGRFTISRDNPKNTLFLQMTSLRSEDTAMYYCARIYYGNSFVYWGQGTLVTVSA VL: DIVMTQSPSSLTVTAGEKVIMSCKSSQSLLNSGNQKNYLTWYQQKPGQPPKMLIYWASTRESGVPDRFRGSGSGTDFTLTISSVQAEDLAVYYCQNNYYYPLTFGTGTKLALK | 755% | 0.346 µg/mL |
| 407D8G1 (antibody, V domains shown) VH: DVQLVESGGGLVQPGGSRKLSCAASGFTFSGFGMHWIRQTPEKGLEWVAYISSGSRPIYYADTVQGRFTISRDNPKNTLFLQMTSLRSEDTAMYFCARFYYGNSFDHWGQGTLVTVSS VL: DIVMTQSPSFLTVTAGEKVTMSCKSSQSLLNSGNQKNYLTWYQQKPGQPPKLLIYWASTRESGVPDRFTGSGSGTDFTLTISSVQAEDLALYYCQNAYSFPLTFGAGTKLELK | 849% | 0.308 µg/mL |
| 407H12E6 (antibody, V domains shown) VH: DVQLVESGGGLVQPGGSRKLSCAASGFTVSSFGMHWVRQAPEKGLEWVAYISSGSSPIYYADTVKGRFTISRDNPKNTLFLQMTSLRSEDTAIYFCARFYYGNSFDHWGQGTLVTVSA VL: DIVMTQSPSSLTVTTGEKVTMSCKSSQSLLNSGNQKNYLTWYQQKPGQSPKLLIYWASTRESGVPDRFTGSGSGTDFTLTISSVQTEDLAVYFCQNNYFFPLTFGAGTKLELK | 143% | 1.83 µg/mL |
| 411B4G4 (antibody, V domains shown) VH: DVQLVESGGGLVQPGGSRKLSCAASGFTFSGFGLHWIRQTPEKGLEWVAYISSGSRPIYYADTVKGRFTISRDNPKNTLFLQMTSLRSEDTAMYFCARFYYGNSFDHWGQGTLVTVSA VL: DIVMTQSPSFLTVTAGEKVTMSCRSSQSLLNSGNQRNYLTWYQQKPGQPPKLLIYWASTRESGVPDRFTGSGSGTDFTLTISSVQAEDLALYYCQNAYSFPLTFGAGTKLELK | 68.3% | 3.98 µg/mL |
| 410A9A9 (antibody, V domains shown) VH: DVQLVESGGGLVQPGGSRKLSCAASGFTFSSFGMHWVRQAPEKGLEWVAYISSGSSPIYYADTVKGRFTISRDNPKNTLFLQMTSLRSEDTAMYFCATFYYGNSFAYWGQGTLVTVSA VL: DIVMTQSPSSLTVTAGEKVTMSCKSSQTLLNSGNQKNYLTWYQQKSGQPPKLLIYWASTRESGVPDRFTGSGSGTDFTLTISSVQAEDLAVYYCQNAYSYPVTFGSGTKVELK | 300% | 0.872 µg/mL |
| 407A8G10 (antibody, V domains shown) VH: DVQLVESGGGLVQPGGSRKLSCAASGFTFSGFGMHWIRQTPEKGLEWVAYISSGSRPIYYADTVKGRFTISRDNPKNTLFLQMTSLRSEDTAMYFCARFYYGNSFDHWGQGTLVTVSA VL: DIVMTQSPSFLTVTAGEKVTMSCRSSQSLLNSGNQRNYLTWYQQKPGQPPKLLIYWASTRESGVPDRFTGSGSGTDFALTISSVQAEDLALYYCQNAYSFPLTFGAGTKLELK | 23.9% | 10.9 µg/mL |
| 410D9G2 (antibody, V domains shown) VH: DVQLVESGGGLVQPGGSRKLSCAASGFTFSGFGMHWIRQTPEKGLEWVAYISSGSRPIYYADTVQGRFTISRDNPKNTLFLQMTSLRSEDTAMYFCARFYYGNSFDHWGQGTLVTVSS VL: DIVMTQSPSFLTVTAGEKVTMSCKSSQSLLNSGNQKNYLTWYQQKPGQPPKLLIYWASTRESGVPDRFTGSGSGTDFTLTISSVQAEDLALYYCQNAYSFPLTFGAGTKLELK | 87.9% | 2.97 µg/mL |
| 411G12G1 (antibody, V domains shown) VH: DVQLVESGGGLVQPGGSRKLSCAASGFTFSGFGMHWIRQAPEKGLEWVAYISSGSRPIYYADTVKGRFTISRDNPKNTLFLQMTSLRSEDTAMYFCARFYYGNSFDHWGQGTLVTVSA VL: DIVMTQSPSFLTVTAGEKVTMSCKSSQSLLNSGNQKNYLTWYQQKPGQPPKLLIYWASTRESGVPDRFTGSGSGTDFTLTISSVQAEDLAVYYCQNDYSFPLTFGAGTKLELK | 28.5% | 9.56 µg/mL |
| 409D1A7 (antibody, V domains shown) VH: DVQLVESGGGLVQPGGSRKLSCAASGFTFSGFGMHWIRQTPEKGLEWVAYISSGSRPIYYADTVKGRFTISRDNPKNTLFLHMTSLRSEDTAMYFCARFYYGNSFDHWGQGTLVTVSA VL: DIVMTQSPSFLTVTAGEKVTMNCKSSQSLLNSGNQRNYLTWYQQKPGQPPKLLIYWASTRESGVPDRFTGSGSGTDFTLTISSVQAEDLALYYCQNAYSFPLTFGAGTKLELN | 33.5% | 7.78 µg/mL |
| 406G3C4 (antibody, V domains shown) VH: EIQLQQSGPELMKPGASVRISCKASGYSFISYYIYWVKQSHGKGLEWIGYIDPFNGNTNYNQKFKGKATLTVDRSSSTAYIHLNSLTSEDSAVYYCAIVNGYGRGAMDYWGQGTSVTVSS VL: QIVLTQSPAIMSASPGEKVTMTCSASSSISYMHWYQQKSGTSPKRWIYDTSKLASGVPARFSGSGSGTSYSLTISSMEAEDAATYYCQQWSSNPLTFGDGTKLELK | 136% | 1.93 µg/mL |

Reference: patent publication US20220073643A1 (NANJING GENSCRIPT BIOTECH, published 2022)
